# Experimental data published in paper PMC4166925.
# How the values were obtained:
# [1] = target: T1, PmTbr T-box (Patiria miniata) (UniProt A0A075Q982)
# T1 sequence: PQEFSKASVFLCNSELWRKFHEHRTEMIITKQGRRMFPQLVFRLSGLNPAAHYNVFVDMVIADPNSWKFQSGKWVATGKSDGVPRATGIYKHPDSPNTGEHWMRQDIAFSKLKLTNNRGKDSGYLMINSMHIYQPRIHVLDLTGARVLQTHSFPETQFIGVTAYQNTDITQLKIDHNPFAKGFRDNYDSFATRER
# [2] = target: T2, SpTbr T-box (Strongylocentrotus purpuratus) (UniProt A0A7M7RD59)
# T2 sequence: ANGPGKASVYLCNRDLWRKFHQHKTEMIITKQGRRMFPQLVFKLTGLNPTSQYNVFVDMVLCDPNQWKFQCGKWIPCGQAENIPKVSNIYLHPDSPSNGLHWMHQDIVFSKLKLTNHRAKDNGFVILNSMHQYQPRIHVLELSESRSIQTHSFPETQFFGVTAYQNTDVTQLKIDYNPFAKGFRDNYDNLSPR
# [3] = tested on: PmTbr DNA-binding domain (T-box) (Patiria miniata); test: SPR (steady state); details: SPR running buffer 50 mM Mops (pH not given; protein buffer 20 mM Mops pH 7.5), 150 mM NaCl, 1 mM DTT, 0.01% P20, 20 °C, 30 µl/min; streptavidin-coated CM5 …
# [4] = tested on: SpTbr DNA-binding domain (T-box) (Strongylocentrotus purpuratus); test: SPR (steady state); details: SPR running buffer 50 mM Mops (pH not given; protein buffer 20 mM Mops pH 7.5), 150 mM NaCl, 1 mM DTT, 0.01% P20, 20 °C, 30 µl/min; streptavidin-coated CM5 …
Sequence,binding signal (PBM E-score (-0.5 to 0.5)) [1],binding signal (PBM E-score (-0.5 to 0.5)) [2],Kd [3],Kd [4]
AACACCTC (double strand) [8-mer AACACCTC],0.491,–,–,–
AAGGTGTC (double strand) [8-mer AAGGTGTC],–,0.487,–,–
AAGTGTGA (double strand) [8-mer AAGTGTGA],–,0.488,–,–
ACACCTCC (double strand) [8-mer ACACCTCC],0.49,–,–,–
ACACCTCG (double strand) [8-mer ACACCTCG],0.49,–,–,–
AGGTGCGA (double strand) [8-mer AGGTGCGA],0.497,0.496,–,–
AGGTGCTA (double strand) [8-mer AGGTGCTA],0.491,–,–,–
AGGTGTCA (double strand) [8-mer AGGTGTCA],0.495,0.494,–,–
AGGTGTCG (double strand) [8-mer AGGTGTCG],0.492,–,–,–
AGGTGTGA (double strand) [8-mer AGGTGTGA],0.499,0.498,–,–
AGGTGTTA (double strand) [8-mer AGGTGTTA],0.496,0.494,–,–
AGTGTGAA (double strand) [8-mer AGTGTGAA],–,0.489,–,–
ATCACACC (double strand) [8-mer ATCACACC],–,0.488,–,–
CACACCTC (double strand) [8-mer CACACCTC],0.49,0.49,–,–
CTCACACC (double strand) [8-mer CTCACACC],0.491,0.494,–,–
CTTTAGGTGACAAACGGTTTTCCGTTTGTCACCTAAAG [PmTbr Secondary Site Hairpin],–,–,446 nM,989 nM
CTTTAGGTGTCGAACGGTTTTCCGTTCGACACCTAAAG [MmEomes Secondary Hairpin],–,–,732 nM,882 nM
CTTTAGGTGTGAAACGGTTTTCCGTTTCACACCTAAAG [Primary Tbr Site Hairpin],–,–,107 nM,137 nM
GACACCTC (double strand) [8-mer GACACCTC],0.49,–,–,–
GGGTGTGA (double strand) [8-mer GGGTGTGA],0.492,0.493,–,–
GGTGCGAA (double strand) [8-mer GGTGCGAA],–,0.487,–,–
GGTGTGAA (double strand) [8-mer GGTGTGAA],0.496,0.497,–,–
GTGTGAAA (double strand) [8-mer GTGTGAAA],0.49,0.49,–,–
GTGTGAAC (double strand) [8-mer GTGTGAAC],–,0.493,–,–
